Legend:
Experiment in all cases: fluorescence polarization
WT1 ZF2-4 Q369R (-KTS) [1] = target: T1, WT1 ZF2-4 Q369R (-KTS) (Homo sapiens, UniProt P19544-4 350-437, Q369R)
WT1 ZF2-4 Q369H (-KTS) = WT1 ZF2-4 Q369H (-KTS) (Homo sapiens, UniProt P19544-4 350-437, Q369H)
WT1 ZF2-4 Q369K (-KTS) = WT1 ZF2-4 Q369K (-KTS) (Homo sapiens, UniProt P19544-4 350-437, Q369K)
WT1 ZF2-4 Q369R (-KTS) [2] = target: T1, WT1 ZF2-4 Q369R (-KTS); remark: listed apart in the source
Egr1 three-finger domain = Egr1 three-finger domain (UniProt P18146 335-423)
WT1 ZF2-4 Q369P (-KTS) = WT1 ZF2-4 Q369P (-KTS) (Homo sapiens, UniProt P19544-4 350-437, Q369P)

B1: Fig1 oligo X=A (dsDNA)
DNA 1: AGCGTGGGAGT
DNA 2: TACTCCCACGC
modifications: 5mC at strand 1 pos 3 and strand 2 pos 9
**Q.** B1 was tested. Which binding signal (WT1 ZF2-4 Q369R (-KTS) [1]) did it give?
**A.** Its binding signal is ~5 fold lower affinity than X=G.

**Q.** And the Kd (WT1 ZF2-4 Q369H (-KTS))?
**A.** The Kd was 8 nM.

B2: Fig1 oligo X=G (dsDNA)
DNA 1: AGCGTGGGGGT
DNA 2: TACCCCCACGC
modifications: 5mC at strand 1 pos 3 and strand 2 pos 9
**Q.** Which results are given for B2?
**A.** Kd (WT1 ZF2-4 Q369K (-KTS)): 14 nM; Kd (WT1 ZF2-4 Q369H (-KTS)): < 3 nM; Kd (WT1 ZF2-4 Q369R (-KTS) [2]): 24 nM

B3: Fig1 oligo X=T (dsDNA)
DNA 1: AGCGTGGGTGT
DNA 2: TACACCCACGC
modifications: 5mC at strand 1 pos 3 and strand 2 pos 9
**Q.** Does B3 bind (Egr1 three-finger domain)?
**A.** Result: binds

**Q.** Does B3 bind (WT1 ZF2-4 Q369P (-KTS))?
**A.** Result: binds
